Data as given in US20080146500A1, “Selective Vpac2 Receptor Peptide Agonists” (priority 2004, published 2008).
Ends that are not written are not given here. * marks the point of attachment. Hexanoyl = CCCCCC(=O)*

What was measured:
human VPAC1 = target: T1, human VPAC1 (Homo sapiens, UniProt P32241); assay: Filter binding assay, membranes from cells transiently transfected with human VPAC1, 125I-labeled VIP tracer; settings: read-out: Human receptor binding (IC50; nM) VPAC1
T1 construct: expressed in transfected cells
T1 sequence (P32241 31-457): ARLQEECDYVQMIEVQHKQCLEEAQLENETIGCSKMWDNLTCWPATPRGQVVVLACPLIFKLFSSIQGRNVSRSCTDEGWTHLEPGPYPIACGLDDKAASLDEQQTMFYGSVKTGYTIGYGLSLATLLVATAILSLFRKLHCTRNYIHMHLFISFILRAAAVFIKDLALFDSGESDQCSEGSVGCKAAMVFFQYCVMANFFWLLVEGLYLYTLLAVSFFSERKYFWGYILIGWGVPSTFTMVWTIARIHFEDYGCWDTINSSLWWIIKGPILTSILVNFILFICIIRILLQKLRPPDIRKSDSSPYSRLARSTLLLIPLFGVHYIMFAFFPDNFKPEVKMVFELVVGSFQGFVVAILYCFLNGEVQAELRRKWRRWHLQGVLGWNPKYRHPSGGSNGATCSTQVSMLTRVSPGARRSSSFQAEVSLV
Method: (§1) For this assay, the solutions and equipment include:
(§2) Presoak solution: 0.5% Polyethyleneamine in Aqua dest.
(§3) Buffer for flushing filter plates: 25 mM HEPES pH 7.4
(§4) Blocking buffer: 25 mM HEPES pH 7.4; 0.2% protease free BSA
(§5) Assay buffer: 25 mM HEPES pH 7.4; 0.5% protease free BSA
(§6) Dilution and assay plate: PS-Microplate, U form
(§7) Filtration Plate Multiscreen FB Opaque Plate; […] Type B Glasfiber filter
(§8) In order to prepare the filter plates, the presoak solution is aspirated by vacuum filtration. The plates are flushed twice with 200 μL flush buffer. 200 μL blocking buffer is added to the filter plate. The filter plate is then incubated with 200 μL presoak solution for 1 hour at room temperature.
(§9) The assay plate is filled with […] (2.5 μg) suspended in assay buffer, 25 μL compound (agonist) in assay buffer, and 25 μL tracer (about 40000 cpm) in assay buffer. The filled plate is incubated for 1 hour with shaking.
(§10) The transfer from assay plate to filter plate is conducted. The blocking buffer is aspirated by vacuum filtration and washed two times with flush buffer. 90 μL is transferred from the assay plate to the filter plate. The 90 μL transferred from assay plate is aspirated and washed three times with 200 μL flush buffer. The plastic support is removed. It is dried for 1 hour at 60° C. 30 μL Microscint is added. The count is performed.
(§11) Values reported are single results or the mean of two or more independent runs.

Normal Wistar rats = assay: Intravenous glucose tolerance test (IVGTT), serum glucose and insulin; assay type: in vivo, rat; settings: Dose = 10 μg/kg iv, time between glucose & compound 0 h
Method: Intravenous glucose tolerance test (IVGTT): Normal Wistar rats are fasted overnight and are anesthetized prior to the experiment. A blood sampling catheter is inserted into the rats. The compound is given in the jugular vein. Blood samples are taken from the carotid artery. A blood sample is drawn immediately prior to the injection of glucose along with the compound. After the initial blood sample, glucose mixed with compound is injected intravenously (i.v.). Compound may also be injected intravenously or subcutaneously prior to the glucose challenge. A glucose challenge of 0.5 g/kg body weight is given, injecting a total of 1.5 mL vehicle with glucose and agonist per kg body weight. The peptide concentrations are varied to produce the desired dose in μg/kg. Blood samples are drawn at 2, 4, 6 and 10 minutes after giving glucose. The control group of animals receives the same vehicle along with glucose, but with no compound added. In some instances, a 30 minute post-glucose blood sample is drawn. Aprotinin is added to the blood sample (250-500 kIU/ml blood). The serum is then analyzed for glucose and insulin using standard methodologies.
The assay uses a formulated and calibrated peptide stock in PBS. Normally, this stock is a prediluted 100 μM stock. However, a more concentrated stock with approximately 1 mg agonist per 1 mL is used. The specific concentration is always known. Variability in the maximal response is mostly due to variability in the vehicle dose.

human PAC1 = target: T2, human PAC1 (Homo sapiens, UniProt P41586); assay: Filter binding assay, membranes from cells transiently transfected with human PAC1, 125I-labeled PACAP-27 tracer; settings: read-out: Human receptor binding (IC50; nM) PAC1
T2 construct: expressed in transfected cells
T2 sequence (P41586 21-468): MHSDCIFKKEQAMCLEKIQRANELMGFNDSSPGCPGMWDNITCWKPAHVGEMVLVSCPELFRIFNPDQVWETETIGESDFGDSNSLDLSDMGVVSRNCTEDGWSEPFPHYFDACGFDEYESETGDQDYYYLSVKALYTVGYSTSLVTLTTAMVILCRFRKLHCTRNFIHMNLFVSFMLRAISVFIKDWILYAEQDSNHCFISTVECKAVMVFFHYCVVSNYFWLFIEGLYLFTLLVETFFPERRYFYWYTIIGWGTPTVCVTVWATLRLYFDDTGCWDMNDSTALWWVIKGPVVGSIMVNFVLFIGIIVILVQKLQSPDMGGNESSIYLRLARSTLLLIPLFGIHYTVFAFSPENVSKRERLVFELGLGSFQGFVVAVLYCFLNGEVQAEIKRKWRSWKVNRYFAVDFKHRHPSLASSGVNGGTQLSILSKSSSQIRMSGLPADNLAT
Method: as §1, §2, §3, §4, §5, §6, §7, §8, §9, §10, §11

human VPAC2 receptor [1] = target: T3, human VPAC2 receptor (human, UniProt P41587 24-438); assay: filter binding, VPAC2 membranes, 125I-VIP tracer
T3 construct: whole, on cells
T3 sequence (looked up): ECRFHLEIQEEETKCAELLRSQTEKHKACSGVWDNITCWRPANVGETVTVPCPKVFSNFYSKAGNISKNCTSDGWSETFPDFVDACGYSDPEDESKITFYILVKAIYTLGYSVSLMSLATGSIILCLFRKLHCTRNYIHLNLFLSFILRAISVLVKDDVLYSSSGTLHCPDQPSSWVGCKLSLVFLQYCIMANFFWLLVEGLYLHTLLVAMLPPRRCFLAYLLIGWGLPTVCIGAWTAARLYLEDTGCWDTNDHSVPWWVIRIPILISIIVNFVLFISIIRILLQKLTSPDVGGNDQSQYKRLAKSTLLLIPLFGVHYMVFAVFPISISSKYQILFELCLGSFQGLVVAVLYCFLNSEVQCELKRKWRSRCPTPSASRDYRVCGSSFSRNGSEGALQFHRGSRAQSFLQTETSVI
Method: The assay plate is filled with 25 mL assay buffer, 25 mL membranes (2.5 μg) suspended in assay buffer, 25 μL compound (agonist) in assay buffer, and 25 μL tracer (about 40000 cpm) in assay buffer. The filled plate is incubated for 1 hour with shaking.

human VPAC2 receptor [2] = target: T3, human VPAC2 receptor; assay: cell-based or functional assay
[3] = target: T4, human VPAC2 receptor (human), P41587; assay: filter binding, VPAC2 membranes, 125I-VIP tracer
T4 chain: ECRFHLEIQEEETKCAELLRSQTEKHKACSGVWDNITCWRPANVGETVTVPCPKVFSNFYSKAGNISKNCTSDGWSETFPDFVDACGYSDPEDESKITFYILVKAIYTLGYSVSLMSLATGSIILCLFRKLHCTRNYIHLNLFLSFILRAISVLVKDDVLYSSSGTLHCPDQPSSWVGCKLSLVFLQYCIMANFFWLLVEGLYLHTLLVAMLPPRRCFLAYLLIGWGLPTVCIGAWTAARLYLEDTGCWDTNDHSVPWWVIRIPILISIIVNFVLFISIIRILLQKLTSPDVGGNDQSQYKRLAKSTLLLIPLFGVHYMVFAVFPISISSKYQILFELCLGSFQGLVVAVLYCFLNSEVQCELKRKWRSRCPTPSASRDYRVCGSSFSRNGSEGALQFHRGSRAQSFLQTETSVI

[4] = target: T5, rat VPAC2 receptor (rat), P35000; assay: cell-based or functional assay
T5 chain: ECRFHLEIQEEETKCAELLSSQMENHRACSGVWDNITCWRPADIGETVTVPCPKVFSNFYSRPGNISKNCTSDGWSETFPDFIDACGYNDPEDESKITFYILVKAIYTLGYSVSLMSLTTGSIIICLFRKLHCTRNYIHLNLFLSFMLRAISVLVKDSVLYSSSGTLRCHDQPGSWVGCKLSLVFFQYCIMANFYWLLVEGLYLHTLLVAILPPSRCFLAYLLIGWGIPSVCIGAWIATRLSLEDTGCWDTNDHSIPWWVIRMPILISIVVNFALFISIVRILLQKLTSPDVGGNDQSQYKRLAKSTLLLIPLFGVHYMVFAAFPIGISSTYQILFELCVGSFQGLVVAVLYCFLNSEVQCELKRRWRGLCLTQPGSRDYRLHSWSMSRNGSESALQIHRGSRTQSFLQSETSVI

[5] = target: T6, rat VPAC1 receptor (rat), P30083; assay: cell-based or functional assay
T6 chain: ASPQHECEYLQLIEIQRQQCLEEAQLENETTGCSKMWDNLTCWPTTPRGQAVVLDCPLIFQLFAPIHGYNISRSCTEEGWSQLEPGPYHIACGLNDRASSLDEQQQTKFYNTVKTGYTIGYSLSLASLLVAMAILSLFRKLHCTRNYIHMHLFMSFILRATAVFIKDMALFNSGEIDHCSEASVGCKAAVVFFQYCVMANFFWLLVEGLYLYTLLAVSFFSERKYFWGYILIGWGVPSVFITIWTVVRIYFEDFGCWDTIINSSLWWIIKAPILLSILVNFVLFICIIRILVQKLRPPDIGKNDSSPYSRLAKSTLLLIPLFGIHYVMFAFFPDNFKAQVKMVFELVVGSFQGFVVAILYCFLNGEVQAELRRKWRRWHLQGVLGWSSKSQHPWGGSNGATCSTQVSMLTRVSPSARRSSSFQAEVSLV

[6] = target: T4, human VPAC2 receptor (human), P41587; assay: cell-based or functional assay
[7] = target: T7, human VPAC1 receptor (human), P32241; assay: filter binding, VPAC1 membranes, 125I-VIP tracer
T7 chain: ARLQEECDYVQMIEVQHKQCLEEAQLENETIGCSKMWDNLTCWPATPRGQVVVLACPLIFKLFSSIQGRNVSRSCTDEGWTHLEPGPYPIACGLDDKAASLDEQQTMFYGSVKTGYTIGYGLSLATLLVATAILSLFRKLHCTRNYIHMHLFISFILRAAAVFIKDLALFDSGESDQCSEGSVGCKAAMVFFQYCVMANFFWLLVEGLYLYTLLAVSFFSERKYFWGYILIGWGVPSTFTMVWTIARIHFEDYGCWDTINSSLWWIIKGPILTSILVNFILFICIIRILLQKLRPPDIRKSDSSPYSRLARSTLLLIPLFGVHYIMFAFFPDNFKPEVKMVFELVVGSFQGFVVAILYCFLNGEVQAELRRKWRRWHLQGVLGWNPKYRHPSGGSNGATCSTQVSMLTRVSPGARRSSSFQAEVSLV

Question: For “C6-HSDAVFTDNYTRLLAKLALQKYLQSIKNKRYGGPSSGAPPPC(PEG40K) (Hexanoyl-HSDAVFTDNYTRLLAKLALQKYLQSIKNKRYGGPSSGAPPPC(PEG 40 kDa)) [Agonist P190, PEGylated peptide obtained from P164 and methoxy-PEG2-MAL-40K]”, which IC50 (human VPAC1) is on record?
Answer: > 3000 nM

Question: And the “% increase AUC (insulin, 0-10 min after glucose)” value (Normal Wistar rats)?
Answer: +73%

Question: And the IC50 (human PAC1)?
Answer: > 25000 nM

B1: P190 (peptide)
peptide: Hexanoyl-HSDAVFTDNYTRLLAKLALQKYLQSIKNKRYGGPSSGAPPPC(PEG 40 kDa)
notes: T0013 drops Thr 11 (print error); also called PEGylated P164
Question: Which results are given for B1?
Answer: IC50 (human VPAC2 receptor [1]): 4.44 nM; cAMP generation (EC50), Alpha screen (human VPAC2 receptor [2]): 2.14 nM

Question: For HSDAVFTDNYTRLRKQVAAKKYLQSIKNKRYGGPSSGAPPPC (modifications not checked) [P137], which IC50 [3] is on record?
Answer: 0.64 nM

Question: What about the cAMP generation (EC50), DiscoveRx, CHO-PO cells [4] of the same molecule?
Answer: 8 nM

Question: And the cAMP generation (EC50), DiscoveRx, CHO-PO cells [5]?
Answer: 29.7 nM

Question: And the cAMP generation (EC50), Alpha screen [6]?
Answer: 8.31 nM

Question: What about the IC50 [7] of the same molecule?
Answer: 853 nM

Question: Which IC50 [3] does the source give for HSDAVFTDNYTRLRRQVAAKRYLQSIRNGGPSSGAPPPS (modifications not checked) [P219] here?
Answer: 67.9 nM

Question: What about the cAMP generation (EC50), Alpha screen [6] of the same molecule?
Answer: 25.5 nM

Question: What does the source list for HSDAVFTDNYTRLRKQVAARRYLQSIRNGGPSSGAPPPS (modifications not checked) [P245]?
Answer: IC50 [3]: 921 nM; cAMP generation (EC50), Alpha screen [6]: 450 nM

Question: Which results are given for HSDAVFTDNYTRLRRQVAARKYLQSIRNGGPSSGAPPPS (modifications not checked) [P247]?
Answer: IC50 [3]: 353 nM; cAMP generation (EC50), Alpha screen [6]: 133 nM
